Measurements reported in article PMC3028594 (DNA repair, 2010).

B1: Bacillus subtilis β sliding clamp (β subunit of DNA polymerase III) (natural protein, UniProt P05649 1-378, looked up)
chain: MKFTIQKDRLVESVQDVLKAVSSRTTIPILTGIKIVASDDGVSFTGSDSDISIESFIPKEEGDKEIVTIEQPGSIVLQARFFSEIVKKLPMATVEIEVQNQYLTIIRSGKAEFNLNGLDADEYPHLPQIEEHHAIQIPTDLLKNLIRQTVFAVSTSETRPILTGVNWKVEQSELLCTATDSHRLALRKAKLDIPEDRSYNVVIPGKSLTELSKILDDNQELVDIVITETQVLFKAKNVLFFSRLLDGNYPDTTSLIPQDSKTEIIVNTKEFLQAIDRASLLAREGRNNVVKLSAKPAESIEISSNSPEIGKVVEAIVADQIEGEELNISFSPKYMLDALKVLEGAEIRVSFTGAMRPFLIRTPNDETIVQLILPVRTY

Experiments:
Experiment in all cases: cross-linking
cross-linking = biological target: the molecule itself
[1] = biological target: Escherichia coli β sliding clamp (β subunit of DNA polymerase III) (Escherichia coli, UniProt P0A988 1-366)
Chain of Escherichia coli β sliding clamp (β subunit of DNA polymerase III) (P0A988 whole entry): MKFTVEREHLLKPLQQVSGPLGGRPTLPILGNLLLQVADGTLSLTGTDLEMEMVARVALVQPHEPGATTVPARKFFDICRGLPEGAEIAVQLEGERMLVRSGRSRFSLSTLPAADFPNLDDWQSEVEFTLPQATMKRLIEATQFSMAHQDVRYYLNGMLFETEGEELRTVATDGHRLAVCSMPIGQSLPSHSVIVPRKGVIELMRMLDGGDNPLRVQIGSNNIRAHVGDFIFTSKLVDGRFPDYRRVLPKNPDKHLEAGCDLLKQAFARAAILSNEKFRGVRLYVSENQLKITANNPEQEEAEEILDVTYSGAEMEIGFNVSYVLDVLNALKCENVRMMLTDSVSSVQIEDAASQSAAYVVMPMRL

[2] = biological target: B1

Row | binding result [1] | binding result [2] | Binder | stoichiometry N (cross-linking)
1 | binds |  | C-terminal (endonuclease) domain of Bacillus subtilis MutL (domain or fragment, UniProt P49850 433-627, looked up) SDRVPIMYPIGQMHGTYILAQNENGLYIIDQHAAQERIKYEYFREKVGEVEPEVQEMIVPLTFHYSTNEALIIEQHKQELESVGVFLESFGSNSYIVRCHPAWFPKGEEAELIEEIIQQVLDSKNIDIKKLREEAAIMMSCKGSIKANRHLRNDEIKALLDDLRSTSDPFTCPHGRPIIIHHSTYEMEKMFKRVM | 2
2 |  | binds | regulatory subdomain of Bacillus subtilis MutL (domain or fragment, UniProt P49850 471-574, looked up) KYEYFREKVGEVEPEVQEMIVPLTFHYSTNEALIIEQHKQELESVGVFLESFGSNSYIVRCHPAWFPKGEEAELIEEIIQQVLDSKNIDIKKLREEAAIMMSCK | 
3 |  | binds | C-terminal domain of Escherichia coli MutL (domain or fragment, UniProt P23367 432-615, looked up) SQSFGRVLTIVHSDCALLERDGNISLLSLPVAERWLRQAQLTPGEAPVCAQPLLIPLRLKVSAEEKSALEKAQSALAELGIDFQSDAQHVTIRAVPLPLRQQNLQILIPELIGYLAKQSVFEPGNIAQWIARNLMSEHAQWSMAQAITLLADVERLCPQLVKTPPGGLLQSVDLHPAIKALKDE | ≥ 2
4 |  |  | B1 | 2
5 | binds |  | regulatory subdomain of Escherichia coli MutL (domain or fragment, UniProt P23367 466-569, looked up) WLRQAQLTPGEAPVCAQPLLIPLRLKVSAEEKSALEKAQSALAELGIDFQSDAQHVTIRAVPLPLRQQNLQILIPELIGYLAKQSVFEPGNIAQWIARNLMSEH | 
